In ChEMBL document CHEMBL1687818, “Mechanistic studies of the inactivation of TEM-1 and P99 by NXL104, a novel non-beta-lactam beta-lactamase inhibitor” (Antimicrob Agents Chemother, 2010):

Substrate: C[C@]1(Cn2ccnn2)[C@H](C(=O)O)N2C(=O)C[C@H]2S1(=O)=O
Conditions: Enterobacter cloacae
Description: Activity of Enterobacter cloacae beta-lactamase P99 by spectrophotometry

B1: Beta-lactamase (Enterobacter cloacae), P05364 (protein)
chain: MMRKSLCCALLLGISCSALATPVSEKQLAEVVANTITPLMKAQSVPGMAVAVIYQGKPHYYTFGKADIAANKPVTPQTLFELGSISKTFTGVLGGDAIARGEISLDDAVTRYWPQLTGKQWQGIRMLDLATYTAGGLPLQVPDEVTDNASLLRFYQNWQPQWKPGTTRLYANASIGLFGALAVKPSGMPYEQAMTTRVLKPLKLDHTWINVPKAEEAHYAWGYRDGKAVRVSPGMLDAQAYGVKTNVQDMANWVMANMAPENVADASLKQGIALAQSRYWRIGSMYQGLGWEMLNWPVEANTVVEGSDSKVALAPLPVAEVNPPAPPVKASWVHKTGSTGGFGSYVAFIPEKQIGIVMLANTSYPNPARVEAAYHILEALQ
B1 showed a Km of 300 µM.
